Broadly, the EC50 is the concentration needed to bring the measured effect to its halfway point.

The target of assay [1] is T1, huNOV (human, UniProt P48745 32-357, limits assumed).
T1 construct: also called human NOV (CCN3)
T1 sequence (looked up): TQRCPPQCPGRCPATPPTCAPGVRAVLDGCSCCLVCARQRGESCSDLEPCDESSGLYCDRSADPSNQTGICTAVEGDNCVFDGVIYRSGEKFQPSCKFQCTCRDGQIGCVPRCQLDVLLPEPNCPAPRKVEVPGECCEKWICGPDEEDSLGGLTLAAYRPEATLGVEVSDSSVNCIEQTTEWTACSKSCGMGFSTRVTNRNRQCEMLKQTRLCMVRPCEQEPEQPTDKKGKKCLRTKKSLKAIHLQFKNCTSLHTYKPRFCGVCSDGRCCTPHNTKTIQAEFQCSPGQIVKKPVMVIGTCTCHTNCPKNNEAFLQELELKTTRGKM
As to the kind of experiment: ELISA, coated CCN protein. The method, boiled down: (§1)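 Plates coated with each CCN protein at 1 μg/ml overnight at 4 °C, blocked with PBS-T/BSA, then serially diluted muteins from 1000 nM bound 1 h at RT. Detection with HRP anti-NGAL or anti-Strep-Tag and fluorogenic substrate; cross-reactivity judged when the CTGF signal neared saturation.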

Assay [2] addresses T2, huWISP-1 (human, UniProt O95388 23-367, limits assumed).
T2 construct: also called human WISP-1 (CCN4)
T2 sequence (looked up): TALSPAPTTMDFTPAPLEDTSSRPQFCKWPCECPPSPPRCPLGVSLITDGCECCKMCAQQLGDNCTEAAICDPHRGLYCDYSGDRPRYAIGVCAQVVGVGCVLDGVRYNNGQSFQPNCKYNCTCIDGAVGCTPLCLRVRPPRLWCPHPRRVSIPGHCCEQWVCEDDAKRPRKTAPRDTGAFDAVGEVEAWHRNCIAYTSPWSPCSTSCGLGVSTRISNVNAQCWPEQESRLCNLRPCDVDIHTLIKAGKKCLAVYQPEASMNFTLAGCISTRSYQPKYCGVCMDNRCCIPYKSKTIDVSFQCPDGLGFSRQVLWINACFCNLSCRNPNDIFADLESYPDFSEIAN
Description: ELISA, coated CCN protein. In outline: as §1

The target in assay [3] is T3, murine CTGF (Biozol, SEQ ID NO: 80) (murine).
T3 construct: Bought; also called muCTGF
Description: ELISA, coated target.

Assay [4] addresses T4, huCTGF domains 1 and 2 with human Fc tag (human).
T4 construct: Made by Evitria; also called Human CTGF1-2-huFc
Description: ELISA, coated target. (ELISA stands for enzyme-linked immunosorbent assay.)

Assay [5] concerns the target T5, recombinant human CTGF protein (R&D Systems, SEQ ID NO: 79) (human, UniProt P29279 27-349).
T5 construct: Bought; also called human CTGF/CNN2; huCTGF
T5 sequence: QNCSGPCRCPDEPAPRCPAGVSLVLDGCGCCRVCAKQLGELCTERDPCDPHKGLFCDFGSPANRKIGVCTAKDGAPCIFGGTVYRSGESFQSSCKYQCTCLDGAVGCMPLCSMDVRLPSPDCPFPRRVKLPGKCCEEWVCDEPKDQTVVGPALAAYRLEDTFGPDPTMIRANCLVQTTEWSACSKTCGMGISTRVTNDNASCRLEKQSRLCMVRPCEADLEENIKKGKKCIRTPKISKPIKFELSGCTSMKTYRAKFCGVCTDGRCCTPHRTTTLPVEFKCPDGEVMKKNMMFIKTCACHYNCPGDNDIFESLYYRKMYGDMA
As to the kind of experiment: ELISA, coated target.

The target of assay [6] is T6, muCTGF domains 1 and 2 with human Fc tag (murine).
T6 construct: Made by Evitria; also called Murine CTGF1-2-huFc
As to the kind of experiment: ELISA, coated target.

Assay [7] has as its target T7, recombinant rat CTGF protein (R&D Systems) (rat, UniProt Q9R1E9 25-347).
T7 construct: Bought; also called rCTGF
T7 sequence: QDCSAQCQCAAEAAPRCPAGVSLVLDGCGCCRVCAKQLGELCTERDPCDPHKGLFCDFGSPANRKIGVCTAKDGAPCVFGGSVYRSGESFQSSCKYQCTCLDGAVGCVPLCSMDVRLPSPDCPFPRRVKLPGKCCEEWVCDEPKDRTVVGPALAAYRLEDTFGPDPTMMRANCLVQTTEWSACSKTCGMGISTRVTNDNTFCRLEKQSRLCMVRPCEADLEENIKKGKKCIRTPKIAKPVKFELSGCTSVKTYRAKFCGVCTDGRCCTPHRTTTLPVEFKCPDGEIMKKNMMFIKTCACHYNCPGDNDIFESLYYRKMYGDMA
As to the kind of experiment: ELISA, coated target.

T6 sequence (chain, as listed by the source limits assumed): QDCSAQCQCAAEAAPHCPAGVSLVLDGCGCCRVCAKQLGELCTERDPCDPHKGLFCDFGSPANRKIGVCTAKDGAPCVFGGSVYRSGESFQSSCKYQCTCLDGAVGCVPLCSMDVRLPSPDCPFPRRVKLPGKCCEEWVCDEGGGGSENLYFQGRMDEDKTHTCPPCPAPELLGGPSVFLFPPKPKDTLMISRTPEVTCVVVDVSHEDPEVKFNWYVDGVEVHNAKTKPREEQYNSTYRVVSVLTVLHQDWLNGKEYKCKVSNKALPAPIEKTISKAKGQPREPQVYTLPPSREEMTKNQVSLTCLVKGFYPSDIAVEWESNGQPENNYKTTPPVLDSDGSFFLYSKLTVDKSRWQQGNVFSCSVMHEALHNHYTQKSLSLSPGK

B1: lipocalin mutein of SEQ ID NO: 15 (designed binder)
chain: QDSTSDLIPAPPLSKVPLQQNFQDNQFQGKWYVVGLAGNAILREDKQPAKMFATIYELKEDKSYDVTSVRFEAKSCKYTIKTFVPGSQPGEFTAGYIKSAPGQTSTLVRVVSTNYNQHAMVFFKHVTQNREIFVITLYGRTKELTSELKENFIRFSKSLGLPENHIVFPVPIDQCIDG
notes: also called hNGAL mutein; not shown: C-terminal His-tag
Take B1: the binding result in assay [1] and in assay [2] was “no binding (tested: dilutions starting at 1000 nM)” in each case.

B2: lipocalin mutein of SEQ ID NO: 29 (designed binder)
chain: QDSTSDLIPAPPLSKVPLQQNFQDNQFHGKWYVVGWAGNIKLREDKDPFKMSATIYELKEDKSYNVTEVVFEQKKCHYIIKTFVPGSQPGEFTLGDIKSPPGETSSLVRVVSTNYNQHAMVFFKKVFQNREFFWITLYGRTKELTSELKENFIRFSKSLGLPENHIVFPVPIDQCIDGSAWSHPQFEK
notes: Parent hNGAL mutein; also called hNGAL mutein
With B2, the binding result in assay [3], in assay [1] and in assay [2] was “no binding (tested: dilutions starting at 1000 nM)” in each case. The concentration for a half-maximal effect (EC50) in assay [4] was 8.4 nM; in assay [5] it was 11 nM; in assay [6] it was 17 nM; in assay [7] it was 20 nM.

B3: lipocalin mutein of SEQ ID NO: 25 (designed binder)
chain: QDSTSDLIPAPPLSKVPLQQNFQDNQFHGKWYVVGMAGNFRLREDKDPSKMGATIYELKEDKSYNVTQVQFDDKKCLYVIETFVPGSQPGEFTLGAIKSFPGFTSQLVRVVSTNYNQHAMVFFKKVYQNREVFWITLYGRTKELTSELKENFIRFSKSLGLPENHIVFPVPIDQCIDGSAWSHPQFEK
notes: as for B2
In the case of B3, the binding result in assay [3], in assay [1] and in assay [2] was “no binding (tested: dilutions starting at 1000 nM)” each time. For the same molecule, the EC50 amounted to 8.8 nM in assay [4], 11 nM in assay [5], 14 nM in assay [6] and 23 nM in assay [7].

B4: lipocalin mutein of SEQ ID NO: 9 (designed binder)
chain: QDSTSDLIPAPPLSKVPLQQNFQDNQFHGKWYVVGLAGNKILRIDKQPAKMFATIYELKEDKSYDVTSVRFEARSCSYTIKTFVPGSQPGEFTAGNIKSAPGQTSTLVRVVSTNYNQHAMVFFKHVSQNRETFVITLYGRTKELTSELKENFIRFSKSLGLPENHIVFPVPIDQCIDGSAWSHPQFEK
notes: as for B2
As to B4, the EC50 in assay [3] was 11 nM; in assay [4], 8 nM; in assay [5] it was 14 nM; in assay [6], 5.8 nM; in assay [7], 30 nM. The binding result in assay [1] and in assay [2] was “no binding (tested: dilutions starting at 1000 nM)” in each case.

B5: lipocalin mutein of SEQ ID NO: 7 (designed binder)
chain: QDSTSDLIPAPPLSKVPLQQNFQDNQFHGKWYVVGLAGNYGLRTDKRPSKMFATIYELKEDKSYDVTSVRFEQERCHYTIRTFVPGSQPGEFTTGSIKSRPGQTSSLVRVVSTNYNQHAMVFFKSVIQNREYFAITLYGRTKELTSELKENFIRFSKSLGLPENHIVFPVPIDQCIDGSAWSHPQFEK
notes: as for B2
As for B5, the concentration for a half-maximal effect (EC50) in assay [3] amounted to 29 nM; in assay [4], 17 nM; in assay [5] it was 34 nM; in assay [6], 14 nM; in assay [7], 41 nM. Further, the binding result in assay [1] and in assay [2] was “no binding (tested: dilutions starting at 1000 nM)” in each case.

B6: lipocalin mutein of SEQ ID NO: 3 (designed binder)
chain: QDSTSDLIPAPPLSKVPLQQNFQDNQFHGKWYVVGRAGNNRLREDKDPPKMWATIYELKEDKSYNVTHVHFMTKKCRYIIDTFVPGSQPGEFTLGAIKSGPGMTSPLVRIVSTNYNQHAMVFFKWVNQNREWFTITLYGRTKELTSELKENFIRFSKSLGLPENHIVFPVPIDQCIDGSAWSHPQFEK
notes: as for B2
B6: the binding result in assay [4], in assay [6], in assay [1] and in assay [2] was “no binding (tested: dilutions starting at 1000 nM)” throughout. For the same molecule, in assay [5], the concentration for a half-maximal effect (EC50) worked out at 6.9 nM.
